Biological target: H2A.Z-H2B (Saccharomyces cerevisiae, UniProt Q12692)
Test: relaxation dispersion NMR

- Kd: ~200 nM
B1: Chz1 (protein)
chain: SDEAKEKRELESQKESSHNKSEKSVEPKPKRRRRRNYDDYDAEVAKEETKAKNGLTKSENNGTVEDSESDMDDAKLDALMGNEGEEEEDDLAEIDTSNIITSGRRTRGKVIDYKKTAEELDKKEPSTGSKDDVGYGEKEEDDEDEEDDDFKE

Reference: paper PMC2768378 (2009)
